The results in this text go back to the supplement of paper PMC7877785.

± gives the uncertainty stated by the source.

This series can be described thus: self-splicing fitness, log relative to wild type (ln ratio); higher = more splicing; Tetrahymena group I intron in knt gene, E. coli kanamycin selection, DiMSum; sequences stand for … in CUCUCU…GGAGGGAAAAGUUAUCAGGCAUGCACCUGGUAGCUAGUCUUUAAACCAAUAGAUUGCAUCGGUUUAAAAGGCAAGACCGUCAAAUUGCGGGAAAGGGGUCAACAGCCGUUCAGUACCAAGUCUCAGGGGAAACUUUGAGAUGGCCUUGCAAAGGGUAUGGUAAUAAGCUGACGGACAUGGUCCUAACCACGCAGCCAAGUCCUAAGUCAACAGAUCUUCUGUUGAUAUGGAUGCAGUUCACAGACUAAAUGUCGGUCGGGGAAGAUGUAUUCUUCUCAUAAGAUAUAGUCGGACCUCUCCUUAAUGGGAGCUAGCGGAUGAAGUGAUGCAACACUGGAGCCGCUGGGAACUAAUUUGUAUGCGAAAGUAUAUUGAUUAGUUUUGGAGUACUCGUGGUCG
In a few lines:
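Colonies from six replicate transformations of E. coli BL21(DE3) were pooled and amplicon-sequenced on an Illumina HiSeq 2500. The library placed an intron with all eight P1ex-region nucleotides randomised inside the knt kanamycin-resistance gene on pET-22b(+), and cells grew overnight at 37°C or 30°C on LB agar with or without 25 μg/mL kanamycin (plus 100 μg/mL carbenicillin, 50 μM IPTG, 0.2% rhamnose). Fitness is the DiMSum error-weighted combination of wild-type-normalised replicate fold changes, kanamycin versus none.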

Take CAGAAGCAAUAUUACGAUAC: where the note is “37 °C”, the “self-splicing fitness (ln)” value is -1.81 ± 0.2.
As to CAGAAGCAAUAUUACGAUGU, the “self-splicing fitness (ln)” value is, setting by setting: (30 °C) -3.37 ± 0.23; (37 °C) -1.97 ± 0.2.
The corresponding values for CAGAAGCAAUAUUACGCACG are -0.596 ± 0.072 and -0.261 ± 0.08.
The like results for CAGAAGCAAUAUUACGCACU were, in that order, -2.13 ± 0.14 and -1.36 ± 0.14.
The corresponding values for CAGAAGCAAUAUUACGCAUG are -3.89 ± 0.21 and -2.44 ± 0.17.
Turning to CAGAAGCAAUAUUACGCGCA, the “self-splicing fitness (ln)” value (30 °C) was -1.55 ± 0.17 and the “self-splicing fitness (ln)” value (37 °C) was -0.337 ± 0.12.
The corresponding values for CAGAAGCAAUAUUACGCUCA are -1.61 ± 0.11 and 0.0994 ± 0.11.
With CAGAAGCAAUAUUACGCUCG, the “self-splicing fitness (ln)” value by setting is: (30 °C) -1.31 ± 0.11; (37 °C) -0.994 ± 0.15.
For CAGAAGCAAUAUUACGGAAG, the “self-splicing fitness (ln)” value by setting is: (30 °C) -1.65 ± 0.077; (37 °C) -1.35 ± 0.095.
The corresponding values for CAGAAGCAAUAUUACGGAGG are -1.91 ± 0.099 and -1.2 ± 0.1.
The corresponding values for CAGAAGCAAUAUUACGGGAA are -3.21 ± 0.23 and -1.37 ± 0.25.
The corresponding values for CAGAAGCAAUAUUACGGGCG are -0.315 ± 0.089 and -0.0188 ± 0.11.
Consider CAGAAGCAAUAUUACGGGUA, for which the “self-splicing fitness (ln)” value by setting is: (30 °C) -2.8 ± 0.16; (37 °C) -2.25 ± 0.13.
The like results for CAGAAGCAAUAUUACGUAGU were, in that order, -4.18 ± 0.24 and -1.97 ± 0.17.
For CAGAAGCAAUAUUACGUCAU, the “self-splicing fitness (ln)” value (37 °C) was -2.9 ± 0.25.
With CAGAAGCAAUAUUACGUCGU, the “self-splicing fitness (ln)” value is -4.88 ± 0.36 (30 °C) and -1.3 ± 0.14 (37 °C).
Take CAGAAGCAAUAUUACGUGCC: the “self-splicing fitness (ln)” value runs as follows: (30 °C) -4.04 ± 0.28; (37 °C) -2.74 ± 0.3.
The corresponding values for CAGAAGCAAUAUUACGUGUC are -3.9 ± 0.25 and -4 ± 0.27.
With CAGCAGCAAUAUUACGAAGC, the “self-splicing fitness (ln)” value (30 °C) was -4.28 ± 0.31.
As for CAGCAGCAAUAUUACGACAU, the “self-splicing fitness (ln)” value reads like this: (30 °C) -3.505 ± 0.021; (37 °C) -1.82 ± 0.034.
The like results for CAGCAGCAAUAUUACGAUAC were, in that order, -3.52 ± 0.33 and -3.45 ± 0.4.
The like results for CAGCAGCAAUAUUACGCAAG were, in that order, -1.53 ± 0.092 and -0.332 ± 0.11.
The like results for CAGCAGCAAUAUUACGCAAU were, in that order, -3.18 ± 0.24 and -1.29 ± 0.15.
Turning to CAGCAGCAAUAUUACGCAGC, the “self-splicing fitness (ln)” value (30 °C) is -4.33 ± 0.32 and the “self-splicing fitness (ln)” value (37 °C) was -2.3 ± 0.28.
In the case of CAGCAGCAAUAUUACGCCGA, the “self-splicing fitness (ln)” value is -1.81 ± 0.12 (30 °C) and -0.864 ± 0.091 (37 °C).
The corresponding values for CAGCAGCAAUAUUACGCGCU are -3.39 ± 0.21 and -2.45 ± 0.16.
The like results for CAGCAGCAAUAUUACGCGGG were, in that order, -2.78 ± 0.17 and -2.31 ± 0.2.
As for CAGCAGCAAUAUUACGGACC, the “self-splicing fitness (ln)” value (37 °C) is -1.84 ± 0.34.
Regarding CAGCAGCAAUAUUACGGCAA, the “self-splicing fitness (ln)” value runs as follows: (30 °C) -1.35 ± 0.1; (37 °C) -1.45 ± 0.097.
The corresponding values for CAGCAGCAAUAUUACGGCGC are -2.93 ± 0.35 and -1.51 ± 0.2.
The corresponding values for CAGCAGCAAUAUUACGGCUU are -0.00706 ± 0.07 and 0.453 ± 0.088.
The corresponding values for CAGCAGCAAUAUUACGGGAA are -3.17 ± 0.33 and -1.58 ± 0.16.
For the sequence CAGCAGCAAUAUUACGGUGC, the “self-splicing fitness (ln)” value is -2.99 ± 0.17 (30 °C) and -2.1 ± 0.28 (37 °C).
The like results for CAGCAGCAAUAUUACGUAAU were, in that order, -2.34 ± 0.16 and -1.91 ± 0.15.
The like results for CAGCAGCAAUAUUACGUACA were, in that order, -2.34 ± 0.15 and -1.97 ± 0.16.
Regarding CAGCAGCAAUAUUACGUCGU, the “self-splicing fitness (ln)” value by setting is: (30 °C) -3.42 ± 0.18; (37 °C) -0.9 ± 0.09.
The like results for CAGCAGCAAUAUUACGUGGC were, in that order, -3.81 ± 0.25 and -1.67 ± 0.23.
The corresponding values for CAGCAGCAAUAUUACGUUAA are -3.01 ± 0.11 and -1.66 ± 0.1.
Consider CAGCAGCAAUAUUACGUUAC, for which the “self-splicing fitness (ln)” value (37 °C) was -2.34 ± 0.27.
For the sequence CAGCAGCAAUAUUACGUUAU, the “self-splicing fitness (ln)” value reads like this: (30 °C) -3.77 ± 0.19; (37 °C) -2.93 ± 0.15.
The corresponding values for CAGCAGCAAUAUUACGUUGU are -2.88 ± 0.1 and -1.52 ± 0.13.
The corresponding values for CAGGAGCAAUAUUACGACUA are 0.224 ± 0.31 and -0.98 ± 0.34.
The corresponding values for CAGGAGCAAUAUUACGAUUA are -3.38 ± 0.31 and -2.37 ± 0.3.
Consider CAGGAGCAAUAUUACGCAGC, for which the “self-splicing fitness (ln)” value is -2.14 ± 0.18 (30 °C) and -2.55 ± 0.33 (37 °C).
The corresponding values for CAGGAGCAAUAUUACGCUUG are -3.59 ± 0.21 and -2.48 ± 0.3.
As for CAGGAGCAAUAUUACGGCAG, the “self-splicing fitness (ln)” value by setting is: (30 °C) -1.41 ± 0.083; (37 °C) -1.27 ± 0.09.
The corresponding values for CAGGAGCAAUAUUACGGCUU are -3.93 ± 0.23 and -2.15 ± 0.21.
The like results for CAGGAGCAAUAUUACGGGUC were, in that order, -2.84 ± 0.19 and -2.92 ± 0.21.
The like results for CAGGAGCAAUAUUACGGUAU were, in that order, -3.42 ± 0.15 and -2.86 ± 0.16.
As to CAGGAGCAAUAUUACGUACC, the “self-splicing fitness (ln)” value (30 °C) was -2.36 ± 0.45.
As for CAGGAGCAAUAUUACGUCAC, the “self-splicing fitness (ln)” value (37 °C) is -1.92 ± 0.44.
For CAGGAGCAAUAUUACGUCCA, the “self-splicing fitness (ln)” value is, setting by setting: (30 °C) -2.02 ± 0.16; (37 °C) -1.08 ± 0.24.
The corresponding values for CAGGAGCAAUAUUACGUGAA are -3.52 ± 0.38 and -3.2 ± 0.43.
CAGGAGCAAUAUUACGUGAU: the “self-splicing fitness (ln)” value reads like this: (30 °C) -4.53 ± 0.46; (37 °C) -1.95 ± 0.23.
The corresponding values for CAGGAGCAAUAUUACGUGCA are -3.17 ± 0.21 and -2.6 ± 0.34.
The corresponding values for CAGUAGCAAUAUUACGAAAU are -2.86 ± 0.15 and -2.54 ± 0.21.
The like results for CAGUAGCAAUAUUACGACCG were, in that order, 0.558 ± 0.16 and -0.0835 ± 0.2.
As for CAGUAGCAAUAUUACGACGA, the “self-splicing fitness (ln)” value runs as follows: (30 °C) -1.39 ± 0.13; (37 °C) -0.446 ± 0.13.
As to CAGUAGCAAUAUUACGAGAU, the “self-splicing fitness (ln)” value (30 °C) is -4.27 ± 0.46 and the “self-splicing fitness (ln)” value (37 °C) was -1.9 ± 0.27.
The like results for CAGUAGCAAUAUUACGAUUC were, in that order, -3.11 ± 0.22 and -2.27 ± 0.26.
CAGUAGCAAUAUUACGCACC: the “self-splicing fitness (ln)” value was -2.03 ± 0.26 (30 °C) and -1.61 ± 0.43 (37 °C).
The corresponding values for CAGUAGCAAUAUUACGCAGU are -3.52 ± 0.34 and -2.33 ± 0.22.
As to CAGUAGCAAUAUUACGCCCU, the “self-splicing fitness (ln)” value (37 °C) was -1.3 ± 0.32.
Take CAGUAGCAAUAUUACGGAAU: the “self-splicing fitness (ln)” value reads like this: (30 °C) -3.7 ± 0.27; (37 °C) -2.55 ± 0.18.
The like results for CAGUAGCAAUAUUACGGCAU were, in that order, -4.45 ± 0.27 and -1.78 ± 0.18.
The corresponding values for CAGUAGCAAUAUUACGGCCA are -1.17 ± 0.16 and -1.11 ± 0.21.
CAGUAGCAAUAUUACGGGAG: the “self-splicing fitness (ln)” value by setting is: (30 °C) -2.37 ± 0.18; (37 °C) -1.91 ± 0.27.
The like results for CAGUAGCAAUAUUACGGGCU were, in that order, -3.56 ± 0.26 and -1.21 ± 0.15.
The corresponding values for CAGUAGCAAUAUUACGGUCG are -0.204 ± 0.093 and 0.084 ± 0.1.
Consider CAGUAGCAAUAUUACGGUGA, for which the “self-splicing fitness (ln)” value is -4.04 ± 0.31 (30 °C) and -2.58 ± 0.24 (37 °C).
Consider CAGUAGCAAUAUUACGGUUC, for which the “self-splicing fitness (ln)” value is, setting by setting: (30 °C) -2.7 ± 0.25; (37 °C) -2.53 ± 0.29.
The corresponding values for CAGUAGCAAUAUUACGGUUU are -3.21 ± 0.22 and -0.724 ± 0.15.
On to CAGUAGCAAUAUUACGUAGA, for which the “self-splicing fitness (ln)” value (30 °C) was -3.03 ± 0.14 and the “self-splicing fitness (ln)” value (37 °C) was -1.85 ± 0.16.
The corresponding values for CAGUAGCAAUAUUACGUAGG are -0.361 ± 0.047 and -0.0678 ± 0.066.
The corresponding values for CAGUAGCAAUAUUACGUCCA are -2.28 ± 0.21 and -1.83 ± 0.28.
CAGUAGCAAUAUUACGUGAG: the “self-splicing fitness (ln)” value by setting is: (30 °C) -1.18 ± 0.067; (37 °C) -0.54 ± 0.12.
Consider CAGUAGCAAUAUUACGUGUC, for which the “self-splicing fitness (ln)” value (30 °C) was -3.74 ± 0.27 and the “self-splicing fitness (ln)” value (37 °C) is -3.17 ± 0.33.
